This note sets out measurements from patent US20090280528.

For data set [1], the system named is T1, NruI restriction endonuclease (recombinant) (Nocardia rubra).
T1 sequence: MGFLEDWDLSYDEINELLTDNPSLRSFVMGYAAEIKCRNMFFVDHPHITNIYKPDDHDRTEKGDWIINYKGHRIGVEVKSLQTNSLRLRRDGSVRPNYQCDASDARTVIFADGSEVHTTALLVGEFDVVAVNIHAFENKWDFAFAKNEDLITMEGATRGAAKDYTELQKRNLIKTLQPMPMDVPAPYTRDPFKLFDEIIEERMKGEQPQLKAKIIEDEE
The data set is described as follows: cleavage_in_vitro. The settings on record: 37 C, 30 min, NEB buffer 2; complete digestion pattern; approximate value.

In data set [2] the test system is T2, Sbo13I restriction endonuclease (Shigella boydii 13).
T2 sequence: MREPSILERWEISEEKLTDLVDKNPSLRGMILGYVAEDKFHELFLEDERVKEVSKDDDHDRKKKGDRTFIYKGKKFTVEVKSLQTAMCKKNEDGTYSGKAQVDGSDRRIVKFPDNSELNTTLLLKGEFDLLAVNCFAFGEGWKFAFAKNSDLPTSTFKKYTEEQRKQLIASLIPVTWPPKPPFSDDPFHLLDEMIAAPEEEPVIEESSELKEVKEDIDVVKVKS
The data set is described as follows: cleavage_in_vitro. The settings on record: 37 C, 10 mM Mg, 55 mM NaCl, pH 7.5; approximate value; lambda DNA assay.

Regarding Lambda phage DNA, the activity (units per gram wet cells) in data set [1] is 6.5e+06. This substance came in with an activity (units per gram wet cell paste) in data set [2] of 100000.
